Where no end group is shown, it is not given here. The star is where a group is joined. FA1 = tetradecanamide (myristoyl) lipid attached through an ethoxy-ethoxy-ethyl acetamide linker, made from Br-FA1, N-(2-(2-(2-(2-bromoacetamido)ethoxy)ethoxy)ethyl)tetradecanamide, CCCCCCCCCCCCCC(=O)NCCOCCOCCNC(=O)C*; FA2 = not defined here; FA3 = not defined here
T1: LGR7 (UniProt Q9HBX9 1-757, limits assumed)
T1 sequence (looked up): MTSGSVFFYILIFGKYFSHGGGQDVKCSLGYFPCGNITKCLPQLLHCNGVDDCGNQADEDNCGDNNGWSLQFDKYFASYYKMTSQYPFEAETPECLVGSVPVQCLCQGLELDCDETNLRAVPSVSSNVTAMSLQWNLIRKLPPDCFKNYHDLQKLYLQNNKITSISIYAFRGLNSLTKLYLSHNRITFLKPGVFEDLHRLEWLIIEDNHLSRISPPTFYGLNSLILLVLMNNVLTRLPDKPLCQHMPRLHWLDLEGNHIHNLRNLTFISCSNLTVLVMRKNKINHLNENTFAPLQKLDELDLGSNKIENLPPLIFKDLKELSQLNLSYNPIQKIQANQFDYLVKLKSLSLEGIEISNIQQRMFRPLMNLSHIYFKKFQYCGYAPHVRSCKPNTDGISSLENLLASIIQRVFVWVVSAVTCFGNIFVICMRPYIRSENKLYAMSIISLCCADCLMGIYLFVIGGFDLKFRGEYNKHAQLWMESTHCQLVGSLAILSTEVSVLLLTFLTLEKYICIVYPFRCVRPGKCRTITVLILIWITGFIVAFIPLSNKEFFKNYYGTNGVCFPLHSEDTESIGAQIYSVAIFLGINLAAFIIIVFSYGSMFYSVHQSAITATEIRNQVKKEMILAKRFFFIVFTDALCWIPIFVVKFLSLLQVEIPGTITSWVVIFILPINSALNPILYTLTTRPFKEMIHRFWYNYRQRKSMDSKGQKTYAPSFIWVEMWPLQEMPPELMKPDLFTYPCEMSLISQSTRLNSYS


target: T1, LGR7; assay: cell-based or functional assay

Binder | Activity
Tev-Relaxin-C chain (ligand) HHHHHHHHENLYFQGSGGDSWMEEVIKLCGRELVRAQIAICGMSTWSKRSLSQEDAPQTPRPVAEIVPSFINKDTETINMMSEFVANLPQELKLTLSEMQPALPQLQQHVPVLKDSSLLFEEFKKLIRNRQSEAADSSPSELKYLGLDTHSRKKRQLYSALANKCCHVGCTKRSLARFC | 6 nM
Tev-Relaxin-B-S29C-FA1-C-Chain (ligand, lipid FA1 on the Cys at B-chain position 29 (from Br-FA1, Example 5)) HHHHHHHHENLYFQGSGGDSWMEEVIKLCGRELVRAQIAICGMSTWCKRSLSQEDAPQTPRPVAEIVPSFINKDTETINMMSEFVANLPQELKLTLSEMQPALPQLQQHVPVLKDSSLLFEEFKKLIRNRQSEAADSSPSELKYLGLDTHSRKKRQLYSALANKCCHVGCTKRSLARFC | 21 nM
Tev-Relaxin-single-chain (ligand) HHHHHHHHENLYFQGSGGDSWMEEVIKLCGRELVRAQIAICGMSTWSGGGRGGRQLYSALANKCCHVGCTKRSLARFC | 14 nM
Tev-Relaxin-B-S29C-FA1-single-chain (ligand, lipid FA1 on the Cys at B-chain position 29 (from Br-FA1, Example 5)) HHHHHHHHENLYFQGSGGDSWMEEVIKLCGRELVRAQIAICGMSTWCGGGRGGRQLYSALANKCCHVGCTKRSLARFC | 29 nM
Tev-Relaxin-B-S29C-single-chain (ligand) HHHHHHHHENLYFQGSGGDSWMEEVIKLCGRELVRAQIAICGMSTWCGGGRGGRQLYSALANKCCHVGCTKRSLARFC | 11 nM
Tev-Relaxin (ligand) chain 1: HHHHHHHHENLYFQSGGDSWMEEVIKLCGRELVRAQIAICGMSTWS chain 2: QLYSALANKCCHVGCTKRSLARFC | 2 nM
GSGG-Relaxin-single-chain (ligand) GSGGDSWMEEVIKLCGRELVRAQIAICGMSTWSGGGRGGRQLYSALANKCCHVGCTKRSLARFC | 1 nM

target: T1, LGR7; assay: cell-based or functional assay; remark: another data set of the same source

Binder | Activity, fold drop compared to relaxin
Relaxin-B-D1AM25KM4K, A-Q1AH12K, B-S29C-FA3 (ligand, ends and bridges not checked; also: A and B chains disulfide-linked, pairing not given here) chain 1: ASWKEEVIKLCGRELVRAQIAICGKSTWC(FA3) chain 2: ALYSALANKCCKVGCTKRSLARFC | 150 fold
Relaxin-A-H12K, B-D1AS29C-FA2 (ligand, ends and bridges not checked; also: A and B chains disulfide-linked, pairing not given here) chain 1: ASWMEEVIKLCGRELVRAQIAICGMSTWC(FA2) chain 2: QLYSALANKCCKVGCTKRSLARFC | 16 fold
Relaxin-B-D1A, A-R18C-FA3 (ligand, ends and bridges not checked; also: A and B chains disulfide-linked, pairing not given here) chain 1: ASWMEEVIKLCGRELVRAQIAICGMSTWS chain 2: QLYSALANKCCHVGCTKC(FA3)SLARFC | 30 fold
Relaxin-B-D1A, A-A5C-FA3 (ligand, ends and bridges not checked; also: A and B chains disulfide-linked, pairing not given here) chain 1: ASWMEEVIKLCGRELVRAQIAICGMSTWS chain 2: QLYSC(FA3)LANKCCHVGCTKRSLARFC | 15 fold
Relaxin-B-D1A, A-A5C-FA2 (ligand, ends and bridges not checked; also: A and B chains disulfide-linked, pairing not given here) chain 1: ASWMEEVIKLCGRELVRAQIAICGMSTWS chain 2: QLYSC(FA2)LANKCCHVGCTKRSLARFC | 25 fold
Relaxin-B-D1AM4KS29C-FA2 (ligand, ends and bridges not checked; also: lipid conjugate FA2, site not given here) chain 1: ASWKEEVIKLCGRELVRAQIAICGMSTWC chain 2: QLYSALANKCCHVGCTKRSLARFC | 40 fold
Pro-Relaxin-B-D1A (ligand) MIEEGRDSWMEEVIKLCGRELVRAQIAICGMSTWSKRKPTGYGSRKKRQLYSALANKCCHVGCTKRSLARFC | 10 fold
Relaxin-B-D1AM25KM4K, A-Q1AH12K, B-S29C-FA2 (ligand, ends and bridges not checked; also: A and B chains disulfide-linked, pairing not given here) chain 1: ASWKEEVIKLCGRELVRAQIAICGKSTWC(FA2) chain 2: ALYSALANKCCKVGCTKRSLARFC | 150 fold
Relaxin-B-D1A (ligand, ends and bridges not checked; cysteine pairing not given here) chain 1: ASWMEEVIKLCGRELVRAQIAICGMSTWS chain 2: QLYSALANKCCHVGCTKRSLARFC | 0 fold
Relaxin-B-D1A, A-Q1C-FA2 (ligand, ends and bridges not checked; also: A and B chains disulfide-linked, pairing not given here) chain 1: ASWMEEVIKLCGRELVRAQIAICGMSTWS chain 2: C(FA2)LYSALANKCCHVGCTKRSLARFC | 15 fold
Relaxin-B-D1AS29C-XTEN288 (ligand) chain 1: ASWMEEVIKLCGRELVRAQIAICGMSTWC chain 2: QLYSALANKCCHVGCTKRSLARFC chain 3: SAGSPTGPGSEPATSGSETPGTSESATPESGPGSEPATSGSETPGTSESATPESGPGTSTEPSEGSAPGSPAGSPTSTEEGTSESATPESGPGSEPATSGSETPGTSESATPESGPGSPAGSPTSTEEGSPAGSPTSTEEGTSTEPSEGSAPGTSESATPESGPGTSESATPESGPGTSESATPESGPGSEPATSGSETPGSEPATSGSETPGSPAGSPTSTEEGTSTEPSEGSAPGTSTEPSEGSAPGSEPATSGSETPGTSESATPESGPGTSTEPSEGSAPSASR | 20 fold
Relaxin-B-D1AM25KS29C-FA2 (ligand, ends and bridges not checked; also: lipid conjugate FA2, site not given here) chain 1: ASWMEEVIKLCGRELVRAQIAICGKSTWC chain 2: QLYSALANKCCHVGCTKRSLARFC | 48 fold
Relaxin-B-D1A, A-Q1C-FA3 (ligand, ends and bridges not checked; also: A and B chains disulfide-linked, pairing not given here) chain 1: ASWMEEVIKLCGRELVRAQIAICGMSTWS chain 2: C(FA3)LYSALANKCCHVGCTKRSLARFC | 25 fold
Relaxin-B-D1A, A-Q1C-FA1 (ligand, ends and bridges not checked; also: A and B chains disulfide-linked, pairing not given here) chain 1: ASWMEEVIKLCGRELVRAQIAICGMSTWS chain 2: C(FA1)LYSALANKCCHVGCTKRSLARFC | 10 fold
Relaxin-B-D1A, A-R18C-FA2 (ligand, ends and bridges not checked; also: A and B chains disulfide-linked, pairing not given here) chain 1: ASWMEEVIKLCGRELVRAQIAICGMSTWS chain 2: QLYSALANKCCHVGCTKC(FA2)SLARFC | 30 fold
Relaxin-B-D1A, A-R18C-FA1 (ligand, ends and bridges not checked; also: A and B chains disulfide-linked, pairing not given here) chain 1: ASWMEEVIKLCGRELVRAQIAICGMSTWS chain 2: QLYSALANKCCHVGCTKC(FA1)SLARFC | 15 fold
Relaxin-B-D1AM25KM4K, A-Q1AH12K, B-S29C-FA1 (ligand, ends and bridges not checked; also: A and B chains disulfide-linked, pairing not given here) chain 1: ASWKEEVIKLCGRELVRAQIAICGKSTWC(FA1) chain 2: ALYSALANKCCKVGCTKRSLARFC | 25 fold

Source: patent publication US20160287713A1 (CALIFORNIA INSTITUTE FOR BIOMEDICAL RESEARCH, published 2016)
